This passage reports Kd and EC50 results from US20220119543A1 (INATHERYS, published 2022).

Broadly, the Kd is the concentration at which binding is half-saturated. For orientation: EC50 means the concentration giving half of the maximal effect.

Assay [1] addresses T1, Recombinant human TfR (R&D Systems, Catalog number 2474-TR) (human, UniProt P02786 89-760).
T1 construct: Bought recombinant protein; also called Histidin-tagged human TfR; TfR-His; not shown: histidine tag
Kind of assay: SPR (Biacore), His-tagged human TfR captured on anti-Penta-His CM5 chip, antibody injected. Here is the method: Histidin-tagged human TfR (as obtained from R&D Systems, Catalog number 2474-TR) was bound after passage on covalently immobilized Penta-His mAb CM5 sensor chip. Ten different concentrations of antibody (1 to 500 nM) were injected across the anti-His/TfR-His surface for 4 minutes and the dissociation complexes was followed for 5 minutes. Both association and dissociation profiles are analyzed with a nonlinear square algorithm implemented in the BIAevalution software using single-exponential functions of time.
Background: In SPR one partner is held on a chip, and binding of the other changes the refractive index at the surface.

Assay [2] has as its target T1, Recombinant human TfR (R&D Systems, …). Kind of assay: ELISA, recombinant human TfR coated on plate. Here is the method: For the determination of the specificity of the antibody an ELISA test may be applied using the following protocol. Recombinant human TfR (as obtained from R&D Systems, Catalog number 2474-TR) are directly coated on a 96 well plate overnight and washed twice before incubation with several dilutions (10) of the antibody (murine and humanized mAb) (dilution may start at the concentration of 50 μg/ml through 0,001 ug/ml) and incubate 1 hour at room temperature. After two washes a secondary antibody Goat-anti Human IgG is incubated Incubate 1 hour at room temperature in the dark, washed twice and incubated with the TMB solution for 10 minutes before reading the absorbance at 450 nm.

T1 sequence (P02786 89-760 limits assumed): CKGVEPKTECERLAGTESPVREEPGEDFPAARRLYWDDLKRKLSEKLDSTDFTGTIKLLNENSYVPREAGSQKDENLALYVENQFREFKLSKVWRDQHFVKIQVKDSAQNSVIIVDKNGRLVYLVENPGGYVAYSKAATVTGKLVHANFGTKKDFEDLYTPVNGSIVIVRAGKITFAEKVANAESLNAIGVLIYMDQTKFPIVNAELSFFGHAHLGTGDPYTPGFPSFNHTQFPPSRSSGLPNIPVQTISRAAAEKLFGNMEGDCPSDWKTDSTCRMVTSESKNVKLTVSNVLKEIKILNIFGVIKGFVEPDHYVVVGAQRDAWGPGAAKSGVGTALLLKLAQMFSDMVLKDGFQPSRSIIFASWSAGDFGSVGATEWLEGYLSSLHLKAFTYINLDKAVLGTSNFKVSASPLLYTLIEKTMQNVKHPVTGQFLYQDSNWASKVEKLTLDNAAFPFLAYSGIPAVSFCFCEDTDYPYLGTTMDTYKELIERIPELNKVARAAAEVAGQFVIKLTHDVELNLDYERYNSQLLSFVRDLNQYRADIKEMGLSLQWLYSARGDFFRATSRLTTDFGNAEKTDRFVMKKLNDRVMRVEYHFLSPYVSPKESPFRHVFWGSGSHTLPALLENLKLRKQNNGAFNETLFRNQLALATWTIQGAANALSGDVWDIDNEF

B1: mAb1 (antibody, human IgG4 S228P, kappa, V domains shown)
VH: QVQLVQSGPELKKPGASVKVSCKASGYTFTNQGMNWVKQAPGKGLKWMGWINTYTGEPINADDFKGRFVISLDTSASTAYLQISSLKAEDTAVYFCVREGWDSMDYWGQGTSVTVSS
VL: QIVLTQSPATLSVSPGERATLSCSASSSVNYMHWFQQKPGQSPRLLIYSTSNRATGIPARFSGSGSGTSYTLTISSLEPEDFAVYYCQQRSSYPLTFGQGTKLEIKR
notes: Humanized A24, human IgG4 isotype; also called VH4/VL4 with IgG4 Fc region
For the molecule B1, the Kd in assay [1] was 315 pM. Also, the EC50 in assay [2] was 0.024 µg/mL.
